Measurements: paper PMC4932455, “Characterization of group II chaperonins from an acidothermophilic archaeon Picrophilus torridus” (FEBS Open Bio, 2016)
Substitutions are numbered along the chain they refer to.

Legend:
[1] = target: Green fluorescent protein, acid-denatured [GFP: P42212]; experiment: GFP releasing assay (recovery of GFP fluorescence, fit of two consecutive steps); acid-denatured GFP captured by 400 nM PtoCPNα at 60 °C for 5 min in HKM buffer with 1 mM DTT, then diluted 10-fold into the same buffer at 50 °C; k1 is the release of denatured GFP
[2] = target: α type group II CPN of Picrophilus torridus (Picrophilus torridus); experiment: SEC-MALS; WTC-100S5 column, 25 °C, 50 mM Tris-HCl pH 7.5, 25 mM MgCl2, 0.2 mM ATP, 300 mM (NH4)SO4, 1 mM DTT, 1.0 mL/min; purified oligomers
[3] = target: Green fluorescent protein, acid-denatured [GFP: P42212]; experiment: GFP releasing assay (recovery of GFP fluorescence, fit of two consecutive steps); acid-denatured GFP captured by 400 nM PtoCPNα at 60 °C for 5 min in HKM buffer with 1 mM DTT, then diluted 10-fold into the same buffer at 30 °C; k1 is the release of denatured GFP
PtoCPNα [4] = target: T1, PtoCPNα (Picrophilus oshimae, UniProt Q6L132, D139G); experiment: ATP-dependent refolding of acid-denatured GFP; type: biochemical; details: 1 mM ATP, 50 mM Tris-HCl pH 7.5, 25 mM MgCl2, 100 mM KCl, 50 °C (figure legend: 60 °C)
T1 construct: gene PTO0735; full length, untagged, pET23b in E. coli BL21(DE3); reassembled homo-oligomer (hexadecamer, 914 kDa); D139G from cloning; forward primer encodes MITGQTPILILKEGTERQ; locus assigned by printed order (other locus PTO1195)
T1 sequence (Q6L132 1-546 D139G): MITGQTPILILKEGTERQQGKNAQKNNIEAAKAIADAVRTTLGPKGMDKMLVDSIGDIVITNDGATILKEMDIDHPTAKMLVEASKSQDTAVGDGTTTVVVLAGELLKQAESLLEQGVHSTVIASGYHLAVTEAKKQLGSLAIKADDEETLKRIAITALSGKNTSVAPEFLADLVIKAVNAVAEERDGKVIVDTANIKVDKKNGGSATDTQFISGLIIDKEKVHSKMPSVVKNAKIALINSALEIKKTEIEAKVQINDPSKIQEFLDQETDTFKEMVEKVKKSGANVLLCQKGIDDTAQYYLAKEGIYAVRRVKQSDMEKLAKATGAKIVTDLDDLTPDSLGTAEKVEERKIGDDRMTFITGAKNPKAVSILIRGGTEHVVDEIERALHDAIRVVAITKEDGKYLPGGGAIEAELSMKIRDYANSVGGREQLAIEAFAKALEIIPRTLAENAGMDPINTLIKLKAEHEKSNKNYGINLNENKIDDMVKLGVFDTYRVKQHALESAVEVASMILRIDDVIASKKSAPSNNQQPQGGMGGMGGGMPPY

PtoCPNα [5] = target: T2, PtoCPNα (Picrophilus oshimae, UniProt Q6L132, D139G/S260C/C290S); experiment: fluorescence change of fluorescein on Cys260; type: binding; details: 1 mM ATP, 50 nM chaperonin, 50 mM Tris-HCl pH 7.5, 25 mM MgCl2, 100 mM KCl, 60 °C; protein labelled with fluorescein 5-maleimide
T2 construct: gene PTO0735; full length, untagged, pET23b in E. coli BL21(DE3); reassembled homo-oligomer (hexadecamer, 914 kDa); D139G from cloning; forward primer encodes MITGQTPILILKEGTERQ; locus assigned by printed order (other locus PTO1195)
T2 sequence (Q6L132 1-546 D139G/S260C/C290S): T1 sequence (Q6L132 1-546 D139G) with S260C, C290S

[6] = target: β type group II CPN of Picrophilus torridus (Picrophilus torridus); experiment: SEC-MALS; WTC-100S5 column, 25 °C, 50 mM Tris-HCl pH 7.5, 25 mM MgCl2, 0.2 mM ATP, 300 mM (NH4)SO4, 1 mM DTT, 1.0 mL/min; purified oligomers

α type group II CPN of Picrophilus torridus (complex)
koff [1]: 0.118 s⁻¹ | stoichiometry N [2]: 16 | koff [3]: 0.478 s⁻¹

Nc1ncnc2c1ncn2[C@@H]1O[C@H](COP(=O)(O)OP(=O)(O)OP(=O)(O)O)[C@@H](O)[C@H]1O [ATP]
ATP-dependent refolding of acid-denatured GFP (PtoCPNα [4]): enhances its refolding in an ATP‐dependent manner | % decrease in maximal fluorescence intensity (PtoCPNα [5]): ~ 15.5%

β type group II CPN of Picrophilus torridus (complex)
stoichiometry N [6]: 14
